The assay addresses chicken pectoral skeletal muscle actin (F-actin) (chicken) (UniProt P68139). The experiment in a line: co-sedimentation.

The values that follow come from publication PMC4075986.

For rat tropomyosin Tm5a (natural protein), the Ka stood at 1.7e+06 M⁻¹.
